Experimental data reported in US20260167699A1 (Chugai, published 2026).
Changes are numbered by the printed parent chain.

T1: FcγRIIa(R) extracellular domain, C-terminal His tag (human, UniProt P12318 34-217)
T1 construct: extracellular domain; also called 2aR
T1 sequence: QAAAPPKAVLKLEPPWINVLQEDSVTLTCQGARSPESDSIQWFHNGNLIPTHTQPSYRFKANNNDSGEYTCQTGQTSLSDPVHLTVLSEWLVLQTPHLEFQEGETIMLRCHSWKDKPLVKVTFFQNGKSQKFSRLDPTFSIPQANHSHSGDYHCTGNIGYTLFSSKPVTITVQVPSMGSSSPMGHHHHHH

T2: FcγRIIa(H) extracellular domain, C-terminal His tag (human, UniProt P12318 34-217)
T2 construct: extracellular domain; also called 2aH
T2 sequence: T1 sequence with R134H

T3: FcγRIIb extracellular domain, C-terminal His tag (human, UniProt P31994 43-217)
T3 construct: extracellular domain; also called 2b
T3 sequence: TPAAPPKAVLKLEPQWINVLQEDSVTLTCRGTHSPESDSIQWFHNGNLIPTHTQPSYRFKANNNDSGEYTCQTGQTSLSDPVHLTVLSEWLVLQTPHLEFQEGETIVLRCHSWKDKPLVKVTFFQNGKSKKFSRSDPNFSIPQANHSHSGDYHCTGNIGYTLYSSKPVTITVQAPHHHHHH

T4: FcγRIIa(R) extracellular domain, C-terminal His tag (human, UniProt P12318 34-217)
T4 construct: extracellular domain; Allotype R131; also called 2aR
T4 sequence: T1 sequence

T5: FcγRIIa(H) extracellular domain, C-terminal His tag (human, UniProt P12318 34-217)
T5 construct: extracellular domain; Allotype H131; also called 2aH
T5 sequence: T1 sequence with R134H

T6: FcγRIIb extracellular domain, C-terminal His tag (human, UniProt P31994 43-217)
T6 construct: extracellular domain; also called 2b
T6 sequence: T3 sequence

B1: GpH7-A5/GpH7-B3 variant Y300_11K/GpL16-k0 (antibody, human IgG1, kappa)
heavy 1: not shown
heavy 2: not shown
light: DIVMTQSPLSLPVTPGEPASISCQASESLVHSNRNTYLHWYLQKPGQSPQLLIYKVSNRFSGVPDRFSGSGSGTDFTLKISRVEAEDVGVYYCSQNTHVPPTFGQGTKVEIERTVAAPSVFIFPPSDEQLKSGTASVVCLLNNFYPREAKVQWKVDNALQSGNSQESVTEQDSKDSTYSLSSTLTLSKADYEKHKVYACEVTHQGLSSPVTKSFNRGEC
notes: heterodimerized IgG1, one H chain mutated; also called He Ab; copies: 1 + 1 + 2
B2: GpH7-A5/GpH7-B3 variant Y300_13S/GpL16-k0 (antibody, human IgG1, kappa)
heavy 1: not shown
heavy 2: not shown
light: B1 light
notes: as for B1
B3: GpH7-A5/GpH7-B3 variant Y300_14T/GpL16-k0 (antibody, human IgG1, kappa)
heavy 1: not shown
heavy 2: not shown
light: B1 light
notes: as for B1
B4: GpH7-A5/GpH7-B3 variant Y300_16H/GpL16-k0 (antibody, human IgG1, kappa)
heavy 1: not shown
heavy 2: not shown
light: B1 light
notes: as for B1
B5: GpH7-A5/GpH7-B3 variant Y300_18N/GpL16-k0 (antibody, human IgG1, kappa)
heavy 1: not shown
heavy 2: not shown
light: B1 light
notes: as for B1
B6: GpH7-A5/GpH7-B3 variant Y300_19Q/GpL16-k0 (antibody, human IgG1, kappa)
heavy 1: not shown
heavy 2: not shown
light: B1 light
notes: as for B1
B7: GpH7-A5/GpH7-B3 variant Y300_20W/GpL16-k0 (antibody, human IgG1, kappa)
heavy 1: not shown
heavy 2: not shown
light: B1 light
notes: as for B1
B8: GpH7-A5/GpH7-B3 variant K326_20W/GpL16-k0 (antibody, human IgG1, kappa)
heavy 1: not shown
heavy 2: not shown
light: B1 light
notes: He Ab: anti-glypican 3 IgG1 heterodimer, only the GpH7-B3 chain mutated; position in EU numbering; also called He Ab
B9: GpH7-A5/GpH7-B3 variant A327_05P/GpL16-k0 (antibody, human IgG1, kappa)
heavy 1: not shown
heavy 2: not shown
light: B1 light
notes: as for B8
B10: GpH7-A5/GpH7-B3 variant A327_06M/GpL16-k0 (antibody, human IgG1, kappa)
heavy 1: not shown
heavy 2: not shown
light: B1 light
notes: as for B8
B11: GpH7-A5/GpH7-B3 variant A327_09D/GpL16-k0 (antibody, human IgG1, kappa)
heavy 1: not shown
heavy 2: not shown
light: B1 light
notes: as for B8
B12: GpH7-A5/GpH7-B3 variant A327_10E/GpL16-k0 (antibody, human IgG1, kappa)
heavy 1: not shown
heavy 2: not shown
light: B1 light
notes: as for B8
B13: GpH7-A5/GpH7-B3 variant A327_13S/GpL16-k0 (antibody, human IgG1, kappa)
heavy 1: not shown
heavy 2: not shown
light: B1 light
notes: as for B8
B14: GpH7-A5/GpH7-B3 variant A327_18N/GpL16-k0 (antibody, human IgG1, kappa)
heavy 1: not shown
heavy 2: not shown
light: B1 light
notes: as for B8
B15: GpH7-A5/GpH7-B3 variant A327_19Q/GpL16-k0 (antibody, human IgG1, kappa)
heavy 1: not shown
heavy 2: not shown
light: B1 light
notes: as for B8
B16: GpH7-A5/GpH7-B3 variant A327_20W/GpL16-k0 (antibody, human IgG1, kappa)
heavy 1: not shown
heavy 2: not shown
light: B1 light
notes: as for B8
B17: GpH7-A5/GpH7-B3 variant A330_01G/GpL16-k0 (antibody, human IgG1, kappa)
heavy 1: not shown
heavy 2: not shown
light: B1 light
notes: as for B8
B18: GpH7-A5/GpH7-B3 variant A330_03V/GpL16-k0 (antibody, human IgG1, kappa)
heavy 1: not shown
heavy 2: not shown
light: B1 light
notes: as for B8
B19: GpH7-A5/GpH7-B3 variant A330_04F/GpL16-k0 (antibody, human IgG1, kappa)
heavy 1: not shown
heavy 2: not shown
light: B1 light
notes: as for B8
B20: GpH7-A5/GpH7-B3 variant A330_06M/GpL16-k0 (antibody, human IgG1, kappa)
heavy 1: not shown
heavy 2: not shown
light: B1 light
notes: as for B8
B21: GpH7-A5/GpH7-B3 variant A330_07I/GpL16-k0 (antibody, human IgG1, kappa)
heavy 1: not shown
heavy 2: not shown
light: B1 light
notes: as for B8
B22: GpH7-A5/GpH7-B3 variant A330_08L/GpL16-k0 (antibody, human IgG1, kappa)
heavy 1: not shown
heavy 2: not shown
light: B1 light
notes: as for B8
B23: GpH7-A5/GpH7-B3 variant A330_09D/GpL16-k0 (antibody, human IgG1, kappa)
heavy 1: not shown
heavy 2: not shown
light: B1 light
notes: as for B8
B24: GpH7-A5/GpH7-B3 variant A330_10E/GpL16-k0 (antibody, human IgG1, kappa)
heavy 1: not shown
heavy 2: not shown
light: B1 light
notes: as for B8
B25: GpH7-A5/GpH7-B3 variant A330_11K/GpL16-k0 (antibody, human IgG1, kappa)
heavy 1: not shown
heavy 2: not shown
light: B1 light
notes: as for B8
B26: GpH7-A5/GpH7-B3 variant A330_12R/GpL16-k0 (antibody, human IgG1, kappa)
heavy 1: not shown
heavy 2: not shown
light: B1 light
notes: as for B8
B27: GpH7-A5/GpH7-B3 variant A330_14T/GpL16-k0 (antibody, human IgG1, kappa)
heavy 1: not shown
heavy 2: not shown
light: B1 light
notes: as for B8

Target: T7, FcγRIa extracellular domain, C-terminal His tag (human, UniProt P12314 16-292)
T7 construct: extracellular domain; also called 1a
Experiment: SPR; He Ab vs HeCon Ab (GpH7-A5/GpH7-B3/GpL16-k0)=100;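 note: surface plasmon resonance at 25 °C with the test antibody captured on a sensor chip via antigenic peptide, protein L or protein A/G and FcγR flowed over as analyte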
T7 sequence (P12314 other isoform, or with tags, fused parts or gaps): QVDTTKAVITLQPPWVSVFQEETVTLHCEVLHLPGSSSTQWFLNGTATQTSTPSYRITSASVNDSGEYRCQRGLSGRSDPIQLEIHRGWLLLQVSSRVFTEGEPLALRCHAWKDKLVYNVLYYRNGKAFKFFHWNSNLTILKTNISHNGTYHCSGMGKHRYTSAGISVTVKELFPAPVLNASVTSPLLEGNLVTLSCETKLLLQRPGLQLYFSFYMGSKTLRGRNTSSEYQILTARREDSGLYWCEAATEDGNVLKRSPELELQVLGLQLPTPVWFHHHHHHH

| He/Con 1a [%] | Binder |
| --- | --- |
| 101 | B1 |
| 105 | B2 |
| 105 | B3 |
| 105 | B4 |
| 101 | B5 |
| 106 | B6 |
| 106 | B7 |

Target: T1, FcγRIIa(R) extracellular domain, …
Experiment: as above

| He/Con 2aR [%] | Binder |
| --- | --- |
| 73.1 | B1 |
| 72.4 | B2 |
| 78.6 | B3 |
| 103 | B4 |
| 96.2 | B5 |
| 119 | B6 |
| 104 | B7 |

Target: T2, FcγRIIa(H) extracellular domain, …
Experiment: as above

| He/Con 2aH [%] | Binder |
| --- | --- |
| 74.2 | B1 |
| 97.8 | B2 |
| 104 | B3 |
| 105 | B4 |
| 101 | B5 |
| 107 | B6 |
| 103 | B7 |

Target: T3, FcγRIIb extracellular domain, …
Experiment: as above

| He/Con 2b [%] | Binder |
| --- | --- |
| 67.4 | B1 |
| 70.4 | B2 |
| 72.7 | B3 |
| 114 | B4 |
| 92.7 | B5 |
| 142 | B6 |
| 110 | B7 |

Target: T8, FcγRIIIa extracellular domain, C-terminal His tag (human, UniProt P08637 17-208)
T8 construct: extracellular domain; also called 3a
Experiment: as above
T8 sequence (P08637 other isoform, or with tags, fused parts or gaps): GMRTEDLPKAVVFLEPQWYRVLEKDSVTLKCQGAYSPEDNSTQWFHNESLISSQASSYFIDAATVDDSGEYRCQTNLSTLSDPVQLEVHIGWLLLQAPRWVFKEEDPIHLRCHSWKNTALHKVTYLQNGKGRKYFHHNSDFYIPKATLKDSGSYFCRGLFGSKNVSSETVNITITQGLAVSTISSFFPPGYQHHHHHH

| He/Con 3a [%] | Binder |
| --- | --- |
| 63.7 | B1 |
| 80.3 | B2 |
| 92.8 | B3 |
| 102 | B4 |
| 96 | B5 |
| 105 | B6 |
| 101 | B7 |

Target: T9, FcγRIa extracellular domain, C-terminal His tag (human, UniProt P12314 16-292)
T9 construct: extracellular domain; also called 1a
Experiment: SPR (Biacore); binding relative to GpH7-A5/GpH7-B3/GpL16-k0 x100;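 note: antibodies captured on a chip surface, soluble FcγR flowed over in HBS-EP+ running buffer at 25 °C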
T9 sequence (P12314 other isoform, or with tags, fused parts or gaps): as the sequence (P12314 other isoform, or with tags, fused parts or gaps) above
Experimental: (§1) The antibody of interest was analyzed for its interaction with FcγR using a BiaCore™ T100, BiaCore™ A100, or BiaCore™ 4000 surface plasmon resonance system (GE Healthcare Japan Corp.). The running buffer used was HBS-EP+ (GE Healthcare Japan Corp.). The assay temperature was set to 25° C. The sensor chips used were: a chip prepared by immobilizing antigenic peptides onto Series S Sensor Chip CM5 (GE Healthcare Japan Corp.) by the amine coupling method; a chip prepared by immobilizing antigenic peptides biotinylated in advance onto Series S Sensor Chip SA (certified) (GE Healthcare Japan Corp.) through their interaction; a chip prepared by immobilizing protein L (ACTIGEN, BioVision, Inc.) onto Series S Sensor Chip CM5 (GE Healthcare Japan Corp.); and a chip prepared by immobilizing protein A/G (Thermo Fisher Scientific K.K.) onto Series S Sensor Chip CM5 (GE Healthcare Japan Corp.). The antibody of interest was captured onto any of these chips and allowed to interact with FcγR diluted with a running buffer. The antibody captured on the chip was washed off through the reaction of 10 mM glycine-HCl (pH 1.5) to regenerate the chip, which was repetitively used.

| He/Con 1a [%] | Binder |
| --- | --- |
| 108 | B8 |
| 102 | B9 |
| 106 | B10 |
| 105 | B11 |
| 106 | B12 |
| 105 | B13 |
| 100 | B14 |
| 98.5 | B15 |
| 100 | B16 |
| 109 | B17 |
| 109 | B18 |
| 110 | B19 |
| 108 | B20 |
| 109 | B21 |
| 110 | B22 |
| 112 | B23 |
| 111 | B24 |
| 107 | B25 |
| 103 | B26 |
| 108 | B27 |

Target: T4, FcγRIIa(R) extracellular domain, …
Experiment: as above
Experimental: as §1

| He/Con 2aR [%] | Binder |
| --- | --- |
| 125 | B8 |
| 80.6 | B9 |
| 80 | B10 |
| 159 | B11 |
| 142 | B12 |
| 98.6 | B13 |
| 114 | B14 |
| 77.7 | B15 |
| 95.9 | B16 |
| 122 | B17 |
| 84 | B18 |
| 112 | B19 |
| 107 | B20 |
| 96 | B21 |
| 99.7 | B22 |
| 79.5 | B23 |
| 97.2 | B24 |
| 124 | B25 |
| 116 | B26 |
| 107 | B27 |

Target: T5, FcγRIIa(H) extracellular domain, …
Experiment: as above
Experimental: as §1

| He/Con 2aH [%] | Binder |
| --- | --- |
| 86.7 | B8 |
| 67.9 | B9 |
| 89.3 | B10 |
| 124 | B11 |
| 108 | B12 |
| 84.4 | B13 |
| 79 | B14 |
| 79.6 | B15 |
| 76.6 | B16 |
| 107 | B17 |
| 86.1 | B18 |
| 104 | B19 |
| 101 | B20 |
| 94.4 | B21 |
| 94.7 | B22 |
| 67.8 | B23 |
| 87.7 | B24 |
| 118 | B25 |
| 116 | B26 |
| 102 | B27 |

Target: T6, FcγRIIb extracellular domain, …
Experiment: as above
Experimental: as §1

| He/Con 2b [%] | Binder |
| --- | --- |
| 166 | B8 |
| 86.3 | B9 |
| 74.1 | B10 |
| 214 | B11 |
| 175 | B12 |
| 99 | B13 |
| 141 | B14 |
| 67.5 | B15 |
| 98.2 | B16 |
| 117 | B17 |
| 59.2 | B18 |
| 105 | B19 |
| 90.9 | B20 |
| 75.8 | B21 |
| 79.6 | B22 |
| 62.8 | B23 |
| 79.2 | B24 |
| 107 | B25 |
| 95.8 | B26 |
| 87.9 | B27 |

Target: T10, FcγRIIIa extracellular domain, C-terminal His tag (human, UniProt P08637 17-208)
T10 construct: extracellular domain; also called 3a
Experiment: as above
T10 sequence (P08637 other isoform, or with tags, fused parts or gaps): as the sequence (P08637 other isoform, or with tags, fused parts or gaps) above
Experimental: as §1

| He/Con 3a [%] | Binder |
| --- | --- |
| 93.7 | B8 |
| 61.9 | B9 |
| 54 | B10 |
| 86 | B11 |
| 70.5 | B12 |
| 66.7 | B13 |
| 62.8 | B14 |
| 54 | B15 |
| 52.6 | B16 |
| 87.3 | B17 |
| 98.8 | B18 |
| 144 | B19 |
| 139 | B20 |
| 101 | B21 |
| 122 | B22 |
| 56.4 | B23 |
| 82.8 | B24 |
| 91.8 | B25 |
| 77.3 | B26 |
| 85.8 | B27 |
